Measurements from IntAct's records for PubMed 29892012.

B1: Ribosome assembly protein METTL17, mitochondrial (Homo sapiens), Q9H7H0 (parent)
chain: MAAALKCLLTLGRWCPGLGVAPQARALAALVPGVTQVDNKSGFLQKRPHRQHPGILKLPHVRLPQALANGAQLLLLGSAGPTMENQVQTLTSYLWSRHLPVEPEELQRRARHLEKKFLENPDLSQTEEKLRGAVLHALRKTTYHWQELSYTEGLSLVYMAARLDGGFAAVSRAFHEIRARNPAFQPQTLMDFGSGTGSVTWAAHSIWGQSLREYMCVDRSAAMLVLAEKLLKGGSESGEPYIPGVFFRQFLPVSPKVQFDVVVSAFSLSELPSKADRTEVVQTLWRKTGHFLVLVENGTKAGHSLLMDARDLVLKGKEKSPLDPRPGFVFAPCPHELPCPQLTNLACSFSQAYHPIPFSWNKKPKEEKFSMVILARGSPEEAHRWPRITQPVLKRPRHVHCHLCCPDGHMQHAVLTARRHGRDLYRCARVSSWGDLLPVLTPSAFPPSTAQDPSES
partner: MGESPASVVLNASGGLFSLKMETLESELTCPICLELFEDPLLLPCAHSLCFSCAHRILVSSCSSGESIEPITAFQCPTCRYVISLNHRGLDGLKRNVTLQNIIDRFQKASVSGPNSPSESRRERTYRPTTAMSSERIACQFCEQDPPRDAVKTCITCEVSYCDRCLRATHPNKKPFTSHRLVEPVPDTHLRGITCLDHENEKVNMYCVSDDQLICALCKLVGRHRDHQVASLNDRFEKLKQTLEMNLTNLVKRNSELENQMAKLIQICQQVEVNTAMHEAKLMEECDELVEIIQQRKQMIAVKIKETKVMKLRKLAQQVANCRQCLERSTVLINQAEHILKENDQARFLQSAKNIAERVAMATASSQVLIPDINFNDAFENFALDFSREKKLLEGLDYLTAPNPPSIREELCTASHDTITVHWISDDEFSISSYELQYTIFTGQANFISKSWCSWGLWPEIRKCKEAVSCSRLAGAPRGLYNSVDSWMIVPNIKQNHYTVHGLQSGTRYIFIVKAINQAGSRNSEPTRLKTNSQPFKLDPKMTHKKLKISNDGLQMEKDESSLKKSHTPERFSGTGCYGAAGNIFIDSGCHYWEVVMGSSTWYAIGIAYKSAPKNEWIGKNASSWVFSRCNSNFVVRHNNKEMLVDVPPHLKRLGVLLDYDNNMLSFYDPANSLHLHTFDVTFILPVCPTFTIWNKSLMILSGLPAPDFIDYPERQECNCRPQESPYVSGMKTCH
B2: Ribosome assembly protein METTL17, mitochondrial (Homo sapiens), Q9H7H0 (parent)
chain: B1 chain
partner: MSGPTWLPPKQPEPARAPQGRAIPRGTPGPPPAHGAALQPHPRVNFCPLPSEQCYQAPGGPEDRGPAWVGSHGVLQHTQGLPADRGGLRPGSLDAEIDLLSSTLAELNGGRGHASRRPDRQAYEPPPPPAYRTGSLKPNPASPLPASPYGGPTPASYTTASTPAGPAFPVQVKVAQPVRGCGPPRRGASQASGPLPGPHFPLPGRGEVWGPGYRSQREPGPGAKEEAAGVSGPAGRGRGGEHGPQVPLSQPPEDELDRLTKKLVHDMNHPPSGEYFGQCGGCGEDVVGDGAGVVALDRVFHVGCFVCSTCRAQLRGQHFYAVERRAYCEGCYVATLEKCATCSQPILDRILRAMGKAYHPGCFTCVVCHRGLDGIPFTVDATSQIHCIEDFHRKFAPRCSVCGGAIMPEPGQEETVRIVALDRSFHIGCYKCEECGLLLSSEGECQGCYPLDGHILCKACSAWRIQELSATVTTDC
B3: Ribosome assembly protein METTL17, mitochondrial (Homo sapiens), Q9H7H0 (parent)
chain: B1 chain
partner: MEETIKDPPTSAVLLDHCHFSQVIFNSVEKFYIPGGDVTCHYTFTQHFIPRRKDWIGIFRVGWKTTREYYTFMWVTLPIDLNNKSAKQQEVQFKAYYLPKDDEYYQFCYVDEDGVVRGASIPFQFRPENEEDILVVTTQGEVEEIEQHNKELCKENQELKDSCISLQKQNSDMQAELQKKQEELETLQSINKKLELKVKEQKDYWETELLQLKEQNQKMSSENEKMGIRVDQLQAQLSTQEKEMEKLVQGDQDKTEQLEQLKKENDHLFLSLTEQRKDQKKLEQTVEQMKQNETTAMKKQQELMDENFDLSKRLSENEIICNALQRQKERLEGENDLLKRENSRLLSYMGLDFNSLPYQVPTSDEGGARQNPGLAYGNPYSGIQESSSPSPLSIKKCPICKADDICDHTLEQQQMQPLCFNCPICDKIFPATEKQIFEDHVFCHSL
B4: Ribosome assembly protein METTL17, mitochondrial (Homo sapiens), Q9H7H0 (parent)
chain: B1 chain
partner: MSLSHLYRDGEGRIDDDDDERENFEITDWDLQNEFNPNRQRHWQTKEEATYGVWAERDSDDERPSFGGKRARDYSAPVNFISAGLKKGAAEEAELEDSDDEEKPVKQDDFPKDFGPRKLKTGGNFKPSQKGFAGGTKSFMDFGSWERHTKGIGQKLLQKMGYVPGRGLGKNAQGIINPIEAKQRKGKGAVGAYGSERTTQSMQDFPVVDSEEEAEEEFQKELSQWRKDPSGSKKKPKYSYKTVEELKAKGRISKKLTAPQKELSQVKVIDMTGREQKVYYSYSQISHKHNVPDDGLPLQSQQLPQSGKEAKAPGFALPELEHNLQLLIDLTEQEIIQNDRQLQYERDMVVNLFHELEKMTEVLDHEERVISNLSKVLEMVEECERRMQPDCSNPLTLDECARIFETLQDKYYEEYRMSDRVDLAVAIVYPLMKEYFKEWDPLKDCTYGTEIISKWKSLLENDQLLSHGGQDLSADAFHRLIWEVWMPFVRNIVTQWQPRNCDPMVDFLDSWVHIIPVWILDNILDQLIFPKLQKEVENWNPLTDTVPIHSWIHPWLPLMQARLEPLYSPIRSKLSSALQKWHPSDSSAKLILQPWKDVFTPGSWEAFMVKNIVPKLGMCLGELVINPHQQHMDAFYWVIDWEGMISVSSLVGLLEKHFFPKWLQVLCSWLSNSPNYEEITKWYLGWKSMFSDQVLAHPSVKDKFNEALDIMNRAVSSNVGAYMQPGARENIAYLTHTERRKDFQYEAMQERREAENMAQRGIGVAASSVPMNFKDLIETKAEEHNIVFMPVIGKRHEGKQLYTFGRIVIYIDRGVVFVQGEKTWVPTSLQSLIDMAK
B5: Ribosome assembly protein METTL17, mitochondrial (Homo sapiens), Q9H7H0 (parent)
chain: B1 chain
partner: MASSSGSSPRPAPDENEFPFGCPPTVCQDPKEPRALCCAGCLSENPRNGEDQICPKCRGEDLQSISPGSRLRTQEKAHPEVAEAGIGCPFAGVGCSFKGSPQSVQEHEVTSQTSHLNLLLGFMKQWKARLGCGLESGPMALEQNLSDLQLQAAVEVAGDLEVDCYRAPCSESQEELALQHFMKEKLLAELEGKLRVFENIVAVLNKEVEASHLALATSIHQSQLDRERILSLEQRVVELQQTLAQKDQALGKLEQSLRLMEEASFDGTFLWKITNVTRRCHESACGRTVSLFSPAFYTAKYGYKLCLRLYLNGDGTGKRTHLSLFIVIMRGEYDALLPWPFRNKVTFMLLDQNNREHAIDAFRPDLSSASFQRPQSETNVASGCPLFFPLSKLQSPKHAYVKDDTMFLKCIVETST
B6: Coiled-coil domain-containing protein 120 (Homo sapiens), Q96HB5-4 (parent)
chain: MRREPRYQGQVGPDIHTDSERTLSSHQPRPLDSTKMEVKGQLISSPTFNAPAALFGEAAPQVKSERLRGLLDRQRTLQEALSLKLQELRKVCLQEAELTGQLPPECPLEPGERPQLVRRRPPTARAYPPPHPNQAHHSLCPAEELALEALEREVSVQQQIAAAARRLALAPDLSTEQRRRRRQVQADALRRLHELEEQLRDVRARLGLPVLPLPQPLPLSTGSVITTQGVCLGMRLAQLSQEDVVLHSESSSLSESGASHDNEEPHGCFSLAERPSPPKAWDQLRAVSGGSPERRTPWKPPPSDLYGDLKSRRNSVASPTSPTRSLPRSASSFEGRSVPATPVLTRGAGPQLCKPEGLHSRQWSGSQDSQMGFPRADPASDRASLFVARTRRSNSSEALLVDRAAGGGAGSPPAPLAPSASGPPVCKSSEVLYERPQPTPAFSSRTAGPPDPPRAARPSSAAPASRGAPRLPPVCGDFLLDYSLDRGLPRSGGGTGWGELPPAAEVPGPLSRRDGLLTMLPGPPPVYAADSNSPLLRTKDPHTRATRTKPCGLPPEAAEGPEVHPNPLLWMPPPTRIPSAGERSGHKNLALEGLRDWYIRNSGLAAGPQRRPVLPSVGPPHPPFLHARCYEVGQALYGAPSQAPLPHSRSFTAPPVSGRYYADFLYPPELSARLSDLTLEGEQSSSSDTQTPGTLV
partner: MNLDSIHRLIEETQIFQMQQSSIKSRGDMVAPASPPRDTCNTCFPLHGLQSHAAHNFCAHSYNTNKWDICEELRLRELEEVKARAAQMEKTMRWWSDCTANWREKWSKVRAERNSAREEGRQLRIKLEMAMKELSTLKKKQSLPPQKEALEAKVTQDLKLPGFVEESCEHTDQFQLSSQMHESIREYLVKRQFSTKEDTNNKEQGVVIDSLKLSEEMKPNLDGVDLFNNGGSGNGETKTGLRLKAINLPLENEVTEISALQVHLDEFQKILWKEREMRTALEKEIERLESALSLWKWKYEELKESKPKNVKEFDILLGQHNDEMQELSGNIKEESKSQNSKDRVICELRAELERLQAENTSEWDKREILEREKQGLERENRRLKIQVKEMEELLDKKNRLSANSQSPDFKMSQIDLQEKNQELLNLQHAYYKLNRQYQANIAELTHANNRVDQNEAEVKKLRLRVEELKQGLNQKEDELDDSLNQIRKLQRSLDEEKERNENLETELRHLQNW
B7: Coiled-coil domain-containing protein 120 (Homo sapiens), Q96HB5-4 (parent)
chain: B6 chain
partner: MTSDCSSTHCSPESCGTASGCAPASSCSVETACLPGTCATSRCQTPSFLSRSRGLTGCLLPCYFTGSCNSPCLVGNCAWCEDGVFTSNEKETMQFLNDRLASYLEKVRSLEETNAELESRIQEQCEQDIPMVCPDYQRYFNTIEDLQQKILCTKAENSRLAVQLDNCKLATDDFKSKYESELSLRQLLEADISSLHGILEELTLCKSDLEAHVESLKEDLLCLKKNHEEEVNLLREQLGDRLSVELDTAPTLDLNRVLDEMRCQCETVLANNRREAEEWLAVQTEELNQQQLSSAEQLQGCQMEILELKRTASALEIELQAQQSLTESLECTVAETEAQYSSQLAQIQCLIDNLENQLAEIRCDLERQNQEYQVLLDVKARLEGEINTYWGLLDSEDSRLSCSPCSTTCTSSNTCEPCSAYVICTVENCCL
B8: Coiled-coil domain-containing protein 120 (Homo sapiens), Q96HB5-4 (parent)
chain: B6 chain
B9: Coiled-coil domain-containing protein 120 (Homo sapiens), Q96HB5-4 (parent)
chain: B6 chain
partner: B5 partner

Variants of: B1
Conditions: with trim1_human MID2, Q9UJV3
With R212H the “effect of a mutation on the interaction” value was “disrupting interaction strength”.

Variants of: B2
Conditions: with trip6_human TRIP6, Q15654
R212H was tested, and the “effect of a mutation on the interaction” value was “with no effect”.

Variants of: B3
Conditions: with caco2_human CALCOCO2, Q13137
R212H was tested, and the “effect of a mutation on the interaction” value was “disrupting interaction strength”.

Variants of: B4
Conditions: with tfp11_human TFIP11, Q9UBB9
For R212H, the “effect of a mutation on the interaction” value was “disrupting interaction strength”.

Variants of: B5
Conditions: with traf1_human TRAF1, Q13077
In the case of R212H, the “effect of a mutation on the interaction” value is reported as “with no effect”.

Variants of: B6
Conditions: with CCDC102B
For R346W, the “effect of a mutation on the interaction” value was “with no effect”.

Variants of: B7
Conditions: with KRT40, Q6A162
For R346W, the “effect of a mutation on the interaction” value was “with no effect”.

Variants of: B8
Conditions: with cyh2_human CYTH2, Q99418
cyh2_human CYTH2, Q99418, sequence (Q99418 whole entry): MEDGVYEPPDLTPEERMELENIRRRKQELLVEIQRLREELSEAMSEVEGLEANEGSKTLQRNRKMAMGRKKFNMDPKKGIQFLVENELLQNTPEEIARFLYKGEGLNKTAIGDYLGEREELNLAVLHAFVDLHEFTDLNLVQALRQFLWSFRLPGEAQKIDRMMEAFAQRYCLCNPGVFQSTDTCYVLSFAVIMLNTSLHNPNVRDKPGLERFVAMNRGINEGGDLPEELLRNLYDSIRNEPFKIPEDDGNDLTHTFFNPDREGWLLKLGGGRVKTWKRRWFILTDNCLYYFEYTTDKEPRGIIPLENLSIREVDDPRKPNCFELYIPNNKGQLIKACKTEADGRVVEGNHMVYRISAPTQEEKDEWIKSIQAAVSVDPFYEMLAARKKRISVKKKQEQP
With R346W the “effect of a mutation on the interaction” value was “with no effect”.

Variants of: B8
Conditions: with mdfi_human MDFI
R346W was tested, and the “effect of a mutation on the interaction” value was “with no effect”.

Variants of: B8
Conditions: with k1h1_human KRT31, Q15323
k1h1_human KRT31, Q15323, sequence (Q15323 whole entry): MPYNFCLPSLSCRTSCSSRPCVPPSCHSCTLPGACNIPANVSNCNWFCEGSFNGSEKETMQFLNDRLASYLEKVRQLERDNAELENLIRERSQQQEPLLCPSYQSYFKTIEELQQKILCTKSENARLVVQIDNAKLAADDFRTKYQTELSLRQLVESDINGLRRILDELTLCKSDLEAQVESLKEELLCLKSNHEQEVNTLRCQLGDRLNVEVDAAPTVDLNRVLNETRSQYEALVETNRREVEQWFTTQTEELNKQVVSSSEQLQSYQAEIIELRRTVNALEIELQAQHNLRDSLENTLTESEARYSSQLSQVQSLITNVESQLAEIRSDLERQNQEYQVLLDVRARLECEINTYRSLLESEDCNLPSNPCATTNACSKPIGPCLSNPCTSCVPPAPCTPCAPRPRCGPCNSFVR
With R346W the “effect of a mutation on the interaction” value was “with no effect”.

Variants of: B8
Conditions: with KRT15, P19012
KRT15, P19012, sequence (P19012 whole entry): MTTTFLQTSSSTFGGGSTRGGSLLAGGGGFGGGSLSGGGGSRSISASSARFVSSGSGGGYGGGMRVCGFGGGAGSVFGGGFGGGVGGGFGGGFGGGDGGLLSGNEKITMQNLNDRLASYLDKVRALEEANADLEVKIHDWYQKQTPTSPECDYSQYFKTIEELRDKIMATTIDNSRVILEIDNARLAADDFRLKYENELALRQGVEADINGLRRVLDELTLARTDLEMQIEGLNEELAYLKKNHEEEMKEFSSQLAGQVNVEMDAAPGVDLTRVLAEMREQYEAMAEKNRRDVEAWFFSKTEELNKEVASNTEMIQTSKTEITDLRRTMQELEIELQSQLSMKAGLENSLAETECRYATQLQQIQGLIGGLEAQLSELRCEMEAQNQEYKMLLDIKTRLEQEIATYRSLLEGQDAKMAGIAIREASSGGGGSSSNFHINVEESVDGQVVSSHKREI
R346W was tested, and the “effect of a mutation on the interaction” value was “with no effect”.

Variants of: B9
Conditions: with traf1_human TRAF1, Q13077
With R346W the “effect of a mutation on the interaction” value was “with no effect”.
